Assays:
anti-g10 serum [1] = experiment: Immunoprecipitation of [32P]-labeled in vitro transcribed RNA with anti-g10 serum; assay type: binding, rabbit; settings: FIG. 4; compared with protein A Sepharose beads alone and pre-immune serum
Procedure: Various antisera were used to precipitate either [32P] labeled in vitro transcribed D10 RNA or control transcripts. Bound RNA was analyzed on a denaturing 6% polyacrylamide gel by autoradiography. Lanes 1-4 are precipitations of D10 RNA with the following antisera: 1, anti-g10 serum; 2, preimmune serum; 3, no antibody; 4, anti-g10 serum. Other transcripts were precipitated with the anti-g10 serum as follows: 5, a control RNA identical to the D10 epitope but with loop sequence 5′-CACCAUAUAA-3′(SEQ ID NO:5); 6, an unrelated RNA; 7, an RNA containing the loop sequence 5′-CUGACCCCGU-3′(SEQ ID NO:6); 8-11, supernatants from the immunoprecipitations shown in lanes 4-7, diluted to approximate radioactive equivalents.
In vitro transcribed [^32P] radiolabeled RNA was immunoprecipitated with anti-g10 serum or with an anti-U1 RNA serum (EW). Bound RNA was analyzed using a denaturing 6% acrylamide gel and autoradiography: Panel A: The D10 DNA construct (FIG. 2) was cloned into the BamHI site of PGEM-3zf (+) to produce tagged vector RNA, and transcripts with different 3′termini were generated with SP6 RNA polymerase. […] For unexplained reasons, a small amount of endogenous U1 RNA was detected in the presence of total HeLa cell extract (lanes 12-14). […]

anti-g10 serum [2] = experiment: Selection of RNA from degenerate pool by immunoprecipitation with anti-g10 serum; assay type: binding, rabbit; settings: three cycles, high stringency washing (0.5 M urea)
Description: Whereas the g10 peptide is a useful epitope tag for analyzing complexes containing protein, an RNA epitope tag would be equally useful for studying complexes containing RNA. The anti-g10 serum was presented with a degenerate pool of RNA containing 1,048,576 unique species, assuming incorporation of four different nucleotides at 10 randomized loop positions (FIG. 2). These RNAs were transcribed from approximately 1×10^11 molecules of degenerate oligodeoxynucleotide template (D. Tsai et al., Nucl. Acids Res. 19, 4931-4936 (1991)). Assuming that most templates are transcribed at least once, all possible RNA species should be redundantly represented. RNA was prepared by in vitro transcription of PCR-generated templates in accordance with known techniques (D. Tsai et al., Nucl. Acids Res. 19, 4931-4936 (1991)). The transcripts were immunoprecipitated with the anti-g10 serum as follows: Protein A Sepharose beads (Sigma, 4 mg per […]) were washed in NT2 buffer (50 mM Tris [pH 7.4], 150 mM NaCl, 0.05% Nonidet P-40) (C. Query et al., Cell 57, 89-101 (1989)), mixed with […] of anti-g10 serum, incubated on ice for 10 min, and washed in NT2. […]

B1: D10 RNA: single RNA species selected from the degenerate pool by anti-g10 serum (SEQ ID NO:3); U1 stem II with loop UGGUGGAGCA (nucleic acid)
chain: GGGCCACCAACGACAUUGGGCGAGGCUUAUCCUGGUGGAGCAGGAUGUGCUGACCCCGUUGAUAUAAAUAGUGCCCAUGGAUC
modifications: chemistry not given here
notes: U1 stem II with loop UGGUGGAGCA
- binding / recognition of RNA by anti-g10 serum (anti-g10 serum [1]): bound only to the anti-g10 serum
- isolates obtained after antibody selection (anti-g10 serum [2]): 45 out of 45

Source: US6582902B1, “Method for deriving epitopes” (priority 1992, dated 2003)
